Laboratory results reported in publication PMC11321312.

Columns and labels:
[1] = target: JGFN4 wild-type VHH (camelid (library from B cells of llamas and alpacas)); assay: crystal structure; crystals grown from the isolated monomeric species (~12 mg/ml) with 5-fold molar excess of fentanyl; sitting drop, ambient temperature
[2] = target: JGFN4 wild-type VHH (camelid (library from B cells of llamas and alpacas)); assay: crystal structure; crystals grown from the isolated (preformed) dimeric species (~12 mg/ml) with 5-fold molar excess of fentanyl; sitting drop, ambient temperature
[3] = target: JGFN4 N76D VHH (camelid (library from B cells of llamas and alpacas)); assay: as above

stoichiometry N [1]	stoichiometry N [2]	stoichiometry N [3]	Binder
2	2		JGFN4 wild-type VHH (VHH) VHH: QVQLVESGGGLAQAGGSLQLSCAASGSTSRVNAMGWYRQTPGKERELVAAIDRSGATVYSESVRGRFTISKNDAKNIVWLQMNNLTTEDTAVYYCRSGVLGSWGLGTQVTVSS
		2	JGFN4 N76D VHH (VHH) VHH: QVQLVESGGGLAQAGGSLQLSCAASGSTSRVNAMGWYRQTPGKERELVAAIDRSGATVYSESVRGRFTISKNDAKDIVWLQMNNLTTEDTAVYYCRSGVLGSWGLGTQVTVSS
